Where only a bound is given, the exact number is not on record here.

Experiment [1] concerns the target human ETB receptor L252H I254T double mutant, construct with an internal FLAG epitope tag (human) (UniProt P24530).
The target in experiment [2] is thermostabilized human ETB receptor (ETB-Y5) fused to SmBiT (human) (UniProt P24530).
Experiment [3] deals with thermostabilized human ETB receptor (ETB-Y5), construct with an internal FLAG epitope tag (human) (UniProt P24530).
The target of experiment [4] is human ETB receptor, wild type, construct with an internal FLAG epitope tag (human) (UniProt P24530).
Experiment [5] deals with human ETB receptor, wild type, fused to SmBiT (ETB-SmBiT) (human) (UniProt P24530).
Experiment [6] has as its target T1, human ETA receptor (human) (UniProt P25101).
T1 sequence: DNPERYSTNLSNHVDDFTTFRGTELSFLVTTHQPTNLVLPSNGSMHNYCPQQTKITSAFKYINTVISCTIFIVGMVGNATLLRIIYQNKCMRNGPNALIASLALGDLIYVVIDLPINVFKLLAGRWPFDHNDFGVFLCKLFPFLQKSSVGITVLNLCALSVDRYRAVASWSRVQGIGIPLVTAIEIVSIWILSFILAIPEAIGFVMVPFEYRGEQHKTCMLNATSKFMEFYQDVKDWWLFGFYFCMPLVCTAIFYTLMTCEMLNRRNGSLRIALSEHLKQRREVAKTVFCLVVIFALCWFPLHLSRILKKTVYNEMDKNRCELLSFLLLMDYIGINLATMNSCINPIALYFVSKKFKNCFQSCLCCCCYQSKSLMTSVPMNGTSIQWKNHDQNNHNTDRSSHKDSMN

In experiment [7] the target is T2, human ETA receptor fused to SmBiT (ETA-SmBiT) (human) (UniProt P25101).
T2 sequence: T1 sequence

“IRL1620 (N-Suc-[E9, A11, 15] ET-1(8-21)) (peptide)” showed a change of EC50 against the wild type receptor, TGFα shedding assay in experiment [1] of 2 fold. The Emax, NanoBiT β-arrestin recruitment assay, percent of that of ET-1 in experiment [2] came to 85%; in experiment [5] it was 87%. Further, the results for the Emax, TGFα shedding assay, percent of that of ET-1 in experiment [3] and in experiment [4] were 84% and 88%, respectively. Also, in experiment [4], the EC50, AP-TGFα release (TGFα shedding assay, G-protein activation), HEK293 cells came to 0.11 nM. This substance displayed an AP-TGFα release (TGFα shedding assay), no activation at the concentration tested in experiment [6] of more than 320 nM.

The substance “endothelin-3 (from UniProt P14138 97-117) (peptide)” came in with an EC50 against that of ET-1, NanoBiT β-arrestin recruitment assay in experiment [7] of 5 fold. The EC50 against that of ET-1, TGFα shedding assay in experiment [6] is 5 fold.

The values are drawn from doi:10.1101/343756.
